Test results reported in FireProtDB (doi:10.1021/bi012042l).

B1: Fatty acid-binding protein, intestinal, P02693 (parent)
chain: MAFDGTWKVDRNENYEKFMEKMGINVVKRKLGAHDNLKLTITQEGNKFTVKESSNFRNIDVVFELGVDFAYSLADGTELTGTWTMEGNKLVGKFKRVDNGKELIAVREISGNELIQTYTYEGVEAKRIFKKE

Variants of: B1
Settings: Rattus norvegicus; pH 7.3; 20 °C; GdnHCl; Fluorescence; potassium phosphate 20 mM; structure 1IFB; whole UniProt chain shown

Row | Variant | denaturant midpoint (higher = more stable) [M] | unfolding free energy [kcal/mol]
1 | G66P | 0.9 | 2.5
2 | G122P | 0.6 | 1.2
3 | G100P | 0.7 | 3.5
4 | G111P | 1 | 5
5 | G45P | 0.8 | 3.1
